Test results published in patent publication US20170183710.

Key:
[1] = target: T1, Anaplastic Lymphoma kinase Artificial Substrate peptide-A (ALAStide-A)
T1 chain: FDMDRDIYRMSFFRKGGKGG

[2] = target: T2, Anaplastic Lymphoma kinase Artificial Substrate peptide-B (ALAStide-B)
T2 chain: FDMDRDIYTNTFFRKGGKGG

YFF peptide = target: T3, YFF peptide
T3 chain: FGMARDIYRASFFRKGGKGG

B1: Anaplastic lymphoma kinase (ALK) (protein)
chain: VYRRKHQELQAMQMELQSPEYKLSKLRTSTIMTDYNPNYCFAGKTSSISDLKEVPRKNITLIRGLGHGAFGEVYEGQVSGMPNDPSPLQVAVKTLPEVCSEQDELDFLMEALIISKFNHQNIVRCIGVSLQSLPRFILLELMAGGDLKSFLRETRPRPSQPSSLAMLDLLHVARDIACGCQYLEENHFIHRDIAARNCLLTCPGPGRVAKIGDFGMARDIYRASYYRKGGCAMLPVKWMPPEAFMEGIFTSKTDTWSFGVLLWEIFSLGYMPYPSKSNQEVLEFVTSGGRMDPPKNCPGPVYRIMTQCWQHQPEDRPNFAIILERIEYCTQDPDVINTALPIEYGPLVEEEEKVPVRPKDPEGVPPLLVSQQAKREEERSPAAPPPLPTTSSGKAAKKPTAAEISVRVPRGPAVEGGHVNMAFSQSNPPSELHKVHGSRNKPTSLWNPTYGSWFTEKPTKKNNPIAKKEPHDRGNLGLEGSCTVPPNVATGRLPGASLLLEPSSLTANMKEVPLFRLRHFPCGNVNYGYQQQGLPLEAATAPGAGHYEDTILKSKNSMNQPGP
[1]
  phosphorylation by ALK kinase in vitro, ELISA: ALAStide-A has higher phosphorylation activity than YFF and ALAStide-B
[2]
  phosphorylation by ALK kinase in vitro, ELISA: ALAStide-B has comparable phosphorylation level with YFF peptide
YFF peptide
  phosphorylation by ALK kinase in vitro, ELISA: YFF peptide is used as a reference to compare the phosphorylation activity of ALAStide-A and ALAStide-B

B2: Csk (protein)
chain: MSAIQAAWPSGTECIAKYNFHGTAEQDLPFCKGDVLTIVAVTKDPNWYKAKNKVGREGIIPANYVQKREGVKAGTKLSLMPWFHGKITREQAERLLYPPETGLFLVRESTNYPGDYTLCVSCDGKVEHYRIMYHASKLSIDEEVYFENLMQLVEHYTSDADGLCTRLIKPKVMEGTVAAQDEFYRSGWALNMKELKLLQTIGKGEFGDVMLGDYRGNKVAVKCIKNDATAQAFLAEASVMTQLRHSNLVQLLGVIVEEKGGLYIVTEYMAKGSLVDYLRSRGRSVLGGDCLLKFSLDVCEAMEYLEGNNFVHRDLAARNVLVSEDNVAKVSDFGLTKEASSTQDTGKLPVKWTAPEALREKKFSTKSDVWSFGILLWEIYSFGRVPYPRIPLKDVVPRVEKGYKMDAPDGCPPAVYEVMKNCWHLDAAMRPSFLQLREQLEHIKTHELHL
[1]
  phosphorylation by kinase in vitro, ELISA: The ALK-specific biosensors are not phosphorylated by other representative cellular kinases
[2]
  phosphorylation by kinase in vitro, ELISA: The ALK-specific biosensors are not phosphorylated by other representative cellular kinases
YFF peptide
  phosphorylation by kinase in vitro, ELISA: shows the lack of affinity of these the two ALK-specific biosensors and YFF peptide by Lyn, Abl, and Csk

B3: Lyn (protein)
chain: MGCIKSKGKDSLSDDGVDLKTQPVRNTERTIYVRDPTSNKQQRPVPESQLLPGQRFQTKDPEEQGDIVVALYPYDGIHPDDLSFKKGEKMKVLEEHGEWWKAKSLLTKKEGFIPSNYVAKLNTLETEEWFFKDITRKDAERQLLAPGNSAGAFLIRESETLKGSFSLSVRDFDPVHGDVIKHYKIRSLDNGGYYISPRITFPCISDMIKHYQKQADGLCRRLEKACISPKPQKPWDKDAWEIPRESIKLVKRLGAGQFGEVWMGYYNNSTKVAVKTLKPGTMSVQAFLEEANLMKTLQHDKLVRLYAVVTREEPIYIITEYMAKGSLLDFLKSDEGGKVLLPKLIDFSAQIAEGMAYIERKNYIHRDLRAANVLVSESLMCKIADFGLARVIEDNEYTAREGAKFPIKWTAPEAINFGCFTIKSDVWSFGILLYEIVTYGKIPYPGRTNADVMTALSQGYRMPRVENCPDELYDIMKMCWKEKAEERPTFDYLQSVLDDFYTATEGQYQQQP
[1]
  phosphorylation by kinase in vitro, ELISA: The ALK-specific biosensors are not phosphorylated by other representative cellular kinases
[2]
  phosphorylation by kinase in vitro, ELISA: The ALK-specific biosensors are not phosphorylated by other representative cellular kinases
YFF peptide
  phosphorylation by kinase in vitro, ELISA: shows the lack of affinity of these the two ALK-specific biosensors and YFF peptide by Lyn, Abl, and Csk
